Experimental data: US11680267B2, “Co-regulatory sequences based on tetracycline and Cumate” (Shenzhen Eureka Biotechnology Co., Ltd., priority 2020, dated 2023)

Experiments:
293T-rtTAadv-CymR cells = assay: Luciferase assay, transient transfection, DOX and Cumate vs no inducer (Example 3), rtTAadv cells; assay type: cell-based
Experimental: (§1) 293T cells were seeded at 1.5E+06 cells per 60 mm culture dish, and cultured in DMEM (Sigam, D6429) complete medium supplemented with 10% FBS (ExCell, 11H116) at 37° C. and 5% CO 2. After 24 hours of culture, transfection was carried out according to the PEI method. During transfection, 500 μL of transfection reagent which contained 5.5 ug of total plasmid was added to each 60 mm culture dish, and the mass ratio of total plasmid to PEI MAX (Polysciences, 24765-1) was 1:4. The transfection was carried out according to the PEI method, wherein the amount of total plasmid was 5.5 μg. The transfection was performed with plasmids 19BF074:18BF019 at a molar ratio of 10:1 to obtain 293T-rtTAadv-CymR cells; and the transfection was performed with plasmids 19BF075:18BF019 at a molar ratio of 10:1 to obtain 293T-rtTA3G-CymR cells. The plasmid and PEI MAX were mixed uniformly, and then put into a culture dish after standing for 15 minutes. 3 hours after transfection, the medium was changed to a complete DMEM medium, and the transfection operation was completed. After 24 hours of transfection, the cells were digested with trypsin and all seeded in a 100 mm culture dish (Corning, 430167), and 200 μg/ml of hygromycin (Sangon Biotech A600230-0001) drug screening was performed for at least three passages. After the growth of cells under the pressure of drug screening was consistent with that of the original 293T cells, the following experiments were performed.
In Tet-On inducible expression system, the induced transcription activity and the leaky transcription activity were comprehensively affected by the TetO operator linking sequence of the TRE response element and the minimal promoter sequence, as well as different mutants of the transactivator rtTA. In addition, the transport and stability of messenger ribonucleic acid may be enhanced by linking a spliceable intron sequence downstream of the 3′ end of the response element and upstream of the 5′ end of the regulated nucleic acid fragment of interest, but the induced transcription activity and leaky transcription activity of response element of the inducible expression system may also be affected. Based on this, the optimal design scheme of complex response element was determined in this Example based on the induced expression level and the ratio of induced/leaky expression level of Luciferase gene under the combination of the following conditions: (1) Tet-On and Cumate complex response elements TREadvCuO and TRE3GCuO designed based on the TREadv and TRE3G response element sequences; (2) whether an intron was linked; (3) being regulated by the transactivator rtTAadv or rtTA3G. A total of 8 design schemes were compared in this Example: TREadv (18BF232), TREadvCuO (18BF233), TRE3G (18BF234), TRE3GCuO (18BF235), TREadv-BGI (18BF240, wherein the response element was TREadv, and a human β-globulin intron was linked between the 3′ end of the response element and the 5′ end of the Luciferase gene), TREadvCuO-BGI (18BF241, wherein the response element was TREadvCuO, and a human β-globulin intron was linked between the 3′ end of the response element and the 5′ end of the Luciferase gene), TRE3G-BGI (18BF236, wherein the response element was TRE3G, and a human β-globulin intron was linked between the 3′ end of the response element and the 5′ end of the Luciferase gene) and TRE3GCuO-BGI (18BF237, wherein the response element was TRE3GCuO, and a human β-globulin intron was linked between the 3′ end of the response element and the 5′ end of the Luciferase gene). The promoter CMV-BGI (18BF229, wherein the promoter was CMV, and a human β-globulin intron was linked between the 3′ end of the CMV promoter and the 5′ end of the Luciferase gene) was used as a positive control. […]

293T-rtTA3G-CymR cells = assay: Luciferase fluorescence intensity assay, transient transfection, both DOX and Cumate vs DOX alone (Example 2); assay type: cell-based
Source text: The experiment described in the present Example is to study and verify the effect of the position and copy number of the CuO operator in the Tet-On and Cumate complex response element on the induced expression level and non-induced leaky expression level of the complex response element, and to optimize and confirm the optimal position and copy number of the CuO operator. In the present Example, based on the 7×TetO sequence in the TRE3G response element and the minimal promoter sequence #1 (SEQ ID NO: 25), the response elements TRE3GCuO14 (10-317 bp in SEQ ID NO: 8), TRE3GCuO30 (SEQ ID NO: 28), TRE3GCuO50 (SEQ ID NO: 23) and TRE3GCuO100 (10-403 bp in SEQ ID NO: 10) were designed by linking a CuO operator sequence at 10 bp to 100 bp downstream of the TATA box (at 14 bp, 30 bp, 50 bp and 100 bp downstream of the TATA box, respectively), and a Luciferase reporter gene sequence was linked downstream of the 3′ end of the above response elements, to construct plasmids 18BF251, 18BF252, 18BF235 and 18BF253. Further, in order to study the effect of multiple copies of CuO operators, 2, 4 and 6 copies of CuO operator sequences were respectively inserted at 50 bp downstream of the TATA box, to design the response elements TRE3GCuO2x (10-411 bp in SEQ ID NO: 11), TRE3GCuO4x (10-527 bp in SEQ ID NO: 12) and TRE3GCuO6x (10-643 bp in SEQ ID NO: 13), and then a Luciferase reporter gene sequence was linked downstream of 3′ end of the above response elements to construct plasmids 18BF254, 18BF255 and 18BF256. In 293T-rtTA3G-CymR cells stably expressing rtTA3G and CymR genes, the above plasmids were transiently transfected, and the optimal position and number of CuO operator were validated by measuring the luciferase […] value of samples added with both DOX and Cumate inducers and that of the control added with the DOX inducer only. The specific experimental methods were as follows:
as §1
The 293T-rtTA3G-CymR cells were seeded in a 96-well plate (Corning 3916) at 2.5E+04 cells per well, and the medium was 100 microliters of DMEM complete medium. […]

[1] = 1 ug/ml DOX and 200 ug/ml Cumate

B1: TRE3GCuO: Tet-On (7xTetO of TRE3G) and Cumate complex response element, CuO 50 bp behind the TATA box (SEQ ID NO: 23) (nucleic acid)
DNA: TCCCTATCAGTGATAGAGAACGTATGAAGAGTTTACTCCCTATCAGTGATAGAGAACGTATGCAGACTTTACTCCCTATCAGTGATAGAGAACGTATAAGGAGTTTACTCCCTATCAGTGATAGAGAACGTATGACCAGTTTACTCCCTATCAGTGATAGAGAACGTATCTACAGTTTACTCCCTATCAGTGATAGAGAACGTATATCCAGTTTACTCCCTATCAGTGATAGAGAACGTATTAGGCGTGTACGGTGGGCGCCTATAAAAGCAGAGCTCGTTTAGTGAACCGTCAGATCGCCTGGAGCAATTCCACATACAAACAGACCAGATTGTCTGTTTGTT
modifications: TRE3GCuO50 response element sequence
For B1, the “increase of induced/leaky expression ratio of TRE3GCuO over TREadvCuO” value (293T-rtTAadv-CymR cells) was 16.4%, the “induced expression level as % of the induced expression level of TRE3G” value (293T-rtTAadv-CymR cells) was 50.4% and the induced expression level (293T-rtTAadv-CymR cells; [1]) was 3.4E+06 RLU. The “induced expression level as % of that of the corresponding TRE3G or TREadv single regulatory response element” value (293T-rtTAadv-CymR cells; DOX and Cumate) was 50.4%, the induced/leaky expression ratio (293T-rtTAadv-CymR cells; DOX and Cumate vs no inducer) was 1565 times and the “induced expression level as % of the induced expression level of TRE3G response element” value (293T-rtTA3G-CymR cells; [1]) was 66.0%. The “ratio of induced/leaky expression level based on Cumate inducible expression system, relative to that of TRE3G response element” value (293T-rtTA3G-CymR cells; DOX and Cumate vs DOX only) was 2.81 times and the induced expression level (293T-rtTA3G-CymR cells; transient transfection, 1 ug/ml DOX and 200 ug/ml Cumate, 24 hours after transfection) was 4.53E+06 RLU.
